Experimental data as given in paper PMC4666351, “A novel transcriptional regulator of L-arabinose utilization in human gut bacteria”.
Where a chain is given by its changes, count along the chain named.

T1: BtAraR V92D (Bacteroides thetaiotaomicron (VPI-548 …, UniProt Q8AAV8 1-225, V92D))
T1 sequence: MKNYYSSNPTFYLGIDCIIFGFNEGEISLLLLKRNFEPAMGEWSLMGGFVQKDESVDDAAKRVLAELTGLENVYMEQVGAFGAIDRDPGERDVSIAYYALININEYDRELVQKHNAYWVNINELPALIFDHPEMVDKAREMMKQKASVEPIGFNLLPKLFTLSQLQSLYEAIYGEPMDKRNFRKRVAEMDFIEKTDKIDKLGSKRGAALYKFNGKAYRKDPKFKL

T2: BtAraR R34N (Bacteroides thetaiotaomicron (VPI-548 …, UniProt Q8AAV8 1-225, R34N))
T2 sequence: T1 sequence with R34N, D92V

T3: BtAraR F49Q (Bacteroides thetaiotaomicron (VPI-548 …, UniProt Q8AAV8 1-225, F49Q))
T3 sequence: T1 sequence with F49Q, D92V

B1: BT0356 (araM) promoter 65-bp (dsDNA)
DNA 1: CCCCCATATAAGAGTGTATTTGATACACCAAACAAAAGTGTTACTTTTACACCCAAAATACCCCC
DNA 2: GGGGGTATTTTGGGTGTAAAAGTAACACTTTTGTTTGGTGTATCAAATACACTCTTATATGGGGG

Key:
[1] = target: BtAraR (BT0354), NrtR family transcription factor of Bacteroides thetaiotaomicron (B. thetaiotaomicron); test: crystal structure; four crystal forms of SeMet BtAraR: apo-1 (R3), apo-2 (I2_(1)3), complex with a 27-bp DNA duplex (P23), complex with L-arabinose (P2_(1)); data at 100 K
BtAraR V92D = target: T1, BtAraR V92D; test: EMSA; 1 uM protein; EMSA: 20 mM Tris-HCl pH 8.0, 150 mM KCl, 5 mM MgCl2, 1 mM DTT, 0.05% NP-40, 2.5% glycerol, 37 C, 30 min; DNA 0.2 nM (0.16 nM in Fig S4), protein 0.25-1 uM; conditions: protein: recombinant; label: 5'-biotin on one strand; blunt
BtAraR R34N = target: T2, BtAraR R34N; test: EMSA; 0.5 mM L-arabinose, 1 uM protein; EMSA: 20 mM Tris-HCl pH 8.0, 150 mM KCl, 5 mM MgCl2, 1 mM DTT, 0.05% NP-40, 2.5% glycerol, 37 C, 30 min; DNA 0.2 nM (0.16 nM in Fig S4), protein 0.25-1 uM; conditions: protein: recombinant; chain copies: 2; label: 5'-biotin on one strand; blunt
BtAraR F49Q = target: T3, BtAraR F49Q; test: as above; conditions: protein: recombinant; chain copies: 2; label: 5'-biotin on one strand; blunt

Molecule | stoichiometry N [1] | binding result (BtAraR V92D) | binding result (BtAraR R34N) | binding result (BtAraR F49Q)
BtAraR (BT0354), NrtR family transcription factor of Bacteroides thetaiotaomicron (natural protein) | 2 |  |  | 
B1 |  | no binding | binds | binds
